Test results: patent publication US20250066423A1, “SESTRIN-MAPK COMPLEX INHIBITORS” (Sentcell Ltd, priority 2021, published 2025)

What was measured:
[1] = molecular target: T1, sMAC (sestrin 1, 2, and 3, AMPK and MAPKs) (Homo sapiens, UniProt P58004+Q9Y6P5); experiment: Pull-down of biotinylated DOS46L from CD4+ T cells; assay type: binding; conditions: 10 uM, 4 hours
T1 construct: endogenous in cells; host or cells: primary CD4+ T cells from PBMCs of healthy donors
T1 sequence (Q9Y6P5 1-492): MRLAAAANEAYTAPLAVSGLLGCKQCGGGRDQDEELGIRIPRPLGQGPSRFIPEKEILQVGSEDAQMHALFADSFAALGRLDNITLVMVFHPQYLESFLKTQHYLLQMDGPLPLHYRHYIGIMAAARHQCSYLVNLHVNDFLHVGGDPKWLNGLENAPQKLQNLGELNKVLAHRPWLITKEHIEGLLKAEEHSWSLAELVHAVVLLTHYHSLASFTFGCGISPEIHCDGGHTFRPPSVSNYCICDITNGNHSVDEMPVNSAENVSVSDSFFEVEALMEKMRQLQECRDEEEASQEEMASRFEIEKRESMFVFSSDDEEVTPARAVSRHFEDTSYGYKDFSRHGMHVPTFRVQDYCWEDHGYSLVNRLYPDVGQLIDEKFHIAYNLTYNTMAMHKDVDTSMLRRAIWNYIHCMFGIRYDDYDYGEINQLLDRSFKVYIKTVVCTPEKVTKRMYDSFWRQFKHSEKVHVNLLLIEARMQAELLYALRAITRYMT
T1 sequence (P58004 1-480): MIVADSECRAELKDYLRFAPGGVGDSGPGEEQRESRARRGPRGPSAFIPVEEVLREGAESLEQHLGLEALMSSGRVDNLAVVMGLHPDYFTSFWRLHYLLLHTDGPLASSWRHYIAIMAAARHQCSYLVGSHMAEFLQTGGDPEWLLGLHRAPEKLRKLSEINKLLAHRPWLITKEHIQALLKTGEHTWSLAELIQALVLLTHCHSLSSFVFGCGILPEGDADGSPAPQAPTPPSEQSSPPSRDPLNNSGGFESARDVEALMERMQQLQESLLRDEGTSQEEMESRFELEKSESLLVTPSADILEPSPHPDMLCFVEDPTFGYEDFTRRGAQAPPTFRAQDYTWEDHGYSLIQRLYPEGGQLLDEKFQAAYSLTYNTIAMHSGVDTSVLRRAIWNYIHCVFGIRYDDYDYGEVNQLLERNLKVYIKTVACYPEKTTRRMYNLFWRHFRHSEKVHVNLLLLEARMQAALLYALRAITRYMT
T1 sequence (P58005 1-492 partner): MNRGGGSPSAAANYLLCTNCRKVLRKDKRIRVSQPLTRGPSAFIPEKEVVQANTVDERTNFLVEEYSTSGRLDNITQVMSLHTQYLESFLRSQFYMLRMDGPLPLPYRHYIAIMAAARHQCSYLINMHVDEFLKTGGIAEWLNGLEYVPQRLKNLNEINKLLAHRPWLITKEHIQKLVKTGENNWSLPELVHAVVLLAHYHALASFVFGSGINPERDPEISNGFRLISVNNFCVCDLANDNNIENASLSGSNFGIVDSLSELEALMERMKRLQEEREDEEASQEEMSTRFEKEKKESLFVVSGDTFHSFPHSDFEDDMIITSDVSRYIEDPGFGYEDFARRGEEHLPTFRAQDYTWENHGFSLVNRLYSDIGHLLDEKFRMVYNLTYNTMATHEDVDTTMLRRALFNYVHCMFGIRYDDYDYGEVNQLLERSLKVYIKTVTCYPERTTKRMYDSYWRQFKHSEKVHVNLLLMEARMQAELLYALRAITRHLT
Experimental: (§1) (A) Biotinylated DOS46L was mixed with flag recombinant Sestrins, immunoprecipitated with streptavidin and immunoblotted with flag Sestrins. […] Representative images from three experiments are shown. […] (D) DOS46L binds to the entire sMAC complex in CD4 T cells. CD4+ T cells were isolated from PBMCs from healthy donors and treated with biotinylated DOS46L compound (10 uM) for 4 hours. Cells were harvested for immunoprecipitation analysis.
(§2) • 1. Cell pellet was lysed with 100 μL of denaturing lysis buffer • 2. Then mixed well by vortexing vigorously for 2-3 sec at maximum speed. • 3. Samples were then boiled at 95° C. for 5 min. • 4. Samples were then diluted 900 μl of non-denaturing lysis buffer and mixed gently. • 5. Cell lysates were then passed through a needle attached to a 1 ml syringe for 5-10 times or were sonicated. • 6. Incubated then on ice for 5 min • 7. Samples were pre-cleaned by spinning at the max speed at 4° C. for 20 min. • 8. Supernatants were collected in a new tube • 9. 7 ul (5 μg) of SESN2 (abcam) primary anti-body was added directly to the supernatant and incubated on the rota o.n. at 4° C. • 10. 200 ul of protein A/G beads were washed 4-5 times in IP buffer and blocked then o.n. in IP buffer with BSA and left on the rota at 4° C. • 11. The day after, 50 ul of protein A/G beads were added to the sample and incubated for 3 hrs on the rota at 4° C. • 12. […]

[2] = molecular target: T2, GATOR complex (WDR59 and mTOR) (Homo sapiens, UniProt P42345+Q6PJI9); experiment: Pull-down of biotinylated DOS46L from CD4+ T cells; assay type: binding; conditions: 10 uM, 4 hours
T2 construct: endogenous in cells; host or cells: primary CD4+ T cells from PBMCs of healthy donors
T2 sequence (Q6PJI9 whole entry, other chains not shown): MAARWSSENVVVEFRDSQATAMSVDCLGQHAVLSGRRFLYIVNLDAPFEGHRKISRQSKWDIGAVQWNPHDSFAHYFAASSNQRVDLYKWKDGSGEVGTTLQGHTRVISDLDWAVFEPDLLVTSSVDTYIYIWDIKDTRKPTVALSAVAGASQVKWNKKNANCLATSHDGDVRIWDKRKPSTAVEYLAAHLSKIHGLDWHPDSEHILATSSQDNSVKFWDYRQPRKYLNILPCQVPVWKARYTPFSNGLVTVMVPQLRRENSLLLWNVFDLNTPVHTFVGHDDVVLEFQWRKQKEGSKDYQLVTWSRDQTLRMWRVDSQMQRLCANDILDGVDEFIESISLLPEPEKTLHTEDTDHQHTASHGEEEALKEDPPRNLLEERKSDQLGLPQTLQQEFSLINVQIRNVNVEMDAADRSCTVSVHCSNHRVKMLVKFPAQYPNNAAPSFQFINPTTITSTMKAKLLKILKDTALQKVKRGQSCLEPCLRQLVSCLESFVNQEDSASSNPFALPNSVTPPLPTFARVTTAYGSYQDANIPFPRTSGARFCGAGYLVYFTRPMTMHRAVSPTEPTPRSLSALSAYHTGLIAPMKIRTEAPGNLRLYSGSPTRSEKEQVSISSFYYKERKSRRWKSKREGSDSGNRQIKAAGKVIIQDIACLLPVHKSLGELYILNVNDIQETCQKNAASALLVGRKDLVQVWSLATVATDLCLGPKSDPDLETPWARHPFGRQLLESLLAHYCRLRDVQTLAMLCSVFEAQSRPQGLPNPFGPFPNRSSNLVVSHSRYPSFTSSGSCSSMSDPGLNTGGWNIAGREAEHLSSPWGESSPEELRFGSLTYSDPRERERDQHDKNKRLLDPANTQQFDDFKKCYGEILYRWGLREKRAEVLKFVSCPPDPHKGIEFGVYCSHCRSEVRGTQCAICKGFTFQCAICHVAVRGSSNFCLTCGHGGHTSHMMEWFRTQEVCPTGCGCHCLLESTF
Experimental: as §1, §2

sestrin 1 = molecular target: T3, sestrin 1 (Homo sapiens, UniProt Q9Y6P5); experiment: Streptavidin pull-down of biotinylated DOS46L with flag recombinant sestrins; assay type: binding; conditions: streptavidin immunoprecipitation
T3 sequence (Q9Y6P5 1-492): T1 sequence (Q9Y6P5 1-492)
Experimental: as §1
(§3) The selective interaction was also studied using the cutting-edge […] algorithm for molecular docking predictions based on the deposited sestrin 2 crystal structure.

Sestrin 2 = molecular target: T4, Sestrin 2 (Homo sapiens, UniProt P58004); experiment: as above; assay type: binding; conditions: streptavidin immunoprecipitation
T4 sequence (P58004 1-480): T1 sequence (P58004 1-480)
Experimental: as §1, §3

[3] = tested on: Breast cancer cell line (MCF-7); experiment: Cancer cell death by FACS live-dead staining; assay type: cell-based; conditions: 20 uM, 48 hours
Experimental: (§4) (Left) Immortalized paediatric neuroblastoma cell line (sh-sy5y) was treated at different concentrations of DOS46L and DOS144D (from 1 uM to 20 uM) for 48 hours, then analysed by FACS with live-dead staining. (Right) Breast cancer cell line (MCF-7) was treated at the fixed concentration of DOS46L and DOS144D (20 uM) for 48 hours, then analysed by FACS with live-dead dye staining. UN depicts untreated controls. Results of triplicate cultures are shown.

[4] = tested on: paediatric neuroblastoma cell line (sh-sy5y); experiment: Cancer cell death by FACS live-dead staining; assay type: cell-based; conditions: 1 uM to 20 uM, 48 hours
Experimental: as §4

[5] = tested on: sMAC signalling (sestrin 1, 2 and 3 expression, AMPK and MAPK phosphorylation); experiment: Immunoblot of sMAC signalling in CD4+ T cells treated with DOS compounds (heat-map); assay type: cell-based, human
Experimental: CD4+ T cells were isolated from PBMCs from healthy donors, treated with DOS compounds for 4 hours and harvested for immunoblot analysis. The heat-map of Sestrin 1, Sestrin 2, Sestrin 3, p-mTOR1, p-JNK, p-AMPK, p-ERK1/2, and p-p38, represents the mean of three to nine experiments. Histone 3 was used as a control.
• 1. CD4+ cells were separated from PBMC using appropriate microbeads kit (Miltenyi) • 2. Cells were resuspended in whole RPMI medium and plated in the 24-multiwell plate • 3. Then activated for 4 hrs with DOS compounds • 4. Cells were then harvested, washed with PBS and resuspended in lysis buffer (RIPA with […]) • 5. The cell-lysis mix was incubated for 20 mins on ice • 6. Samples were centrifuged for 20 mins at the max speed • 7. The supernatant was collected and Lemmli buffer+β-Mercaptoethanol was added • 8. Samples were then boiled for 5 mins at 95° C. • 9. Samples were loaded on the polyacrylamide gel and left to run in TRIS-Glycine-SDS running buffer • 10. Once the run was completed the proteins were transferred from the gel to the nitrocellulose membrane by using the Trans-Blot machine (Biorad) • 11. Membrane was washed with 0.1% Tween-TBS buffer and blocked in 5% non-fat milk for 1 hr • 12. Followed incubation with the primary antibody o.n. • 13. The day after, the membrane was washed with 0.1% Tween-TBS buffer for three times for at least 30 mins each • 14. Secondary antibody was then added for 1h • 15. The membrane was the washed with 0.1% Tween-TBS buffer for three times for at least 30 mins each • 16. The signal was developed using ECL solution
This was shown by downregulation of sestrin 1, 2 and 3 expression, and AMPK and MAPK phosphorylation.

H1N1 PR8/54 = assay type: in vivo, mice; conditions: old mice, vaccination with DOS, H1N1 PR8/54
[6] = molecular target: T5, flag recombinant Sestrin 3 (UniProt P58005 1-492, limits assumed); experiment: recombinant sestrins, precipitation and immunoblot (FIG. 8B-C)
T5 construct: also called flagged sestrin 3; not shown: flag tag
T5 sequence (looked up): T1 sequence (P58005 1-492 partner)

Molecule: biotinylated DOS46L: biotinylated variant of DOS46L used for pull-down (cyclo(AFIPV); also: biotinylated, site not given here)
- association with sMAC in cells [1]: found in the sMAC
- association with elements of the GATOR complex in cells [2]: not with elements of the GATOR complex
- direct binding to sestrin 1 (sestrin 1): directly binds
- direct binding to sestrin 2 (Sestrin 2): directly binds

Molecule: CC(C)C[C@H]1NC(=O)[C@@H](CC(C)C)NC(=O)[C@@H](Cc2c[nH]c3ccccc23)NC(=O)[C@@H](CCC(=O)O)NC(=O)CNC1=O [DOS144D]
- cancer cell death [3]: induction of cancer cell death
- cancer cell death [4]: induction of cancer cell death
- effectiveness at sMAC inactivation among all of the DOS compounds tested [5]: most effective
- sestrins inhibited (pan or selective inhibitor) ([5]; CD4+ T cells, 4 hours, FIG. 5 heat-map): inhibit all three sestrins
- survival data, comparison of compounds (H1N1 PR8/54): similar

B1: flag recombinant Sestrin 1 (other, UniProt Q9Y6P5 1-492, looked up)
chain: T1 sequence (Q9Y6P5 1-492)
notes: also called flagged sestrin 1; not shown: flag tag
- binding result [6]: no binding
